Laboratory results: patent EP2654803B1, “RADIOLABELED HER2-BINDING PEPTIDE CONJUGATES” (General Electric Company, priority 2010, dated 2021)
Where two headings read alike, the source gives them in different places.

Legend:
SKOV3 tumors [1] = tested on: SKOV3 tumors; set-up: species or system female CD-1 nude mice; conditions: mouse, in vivo
Protocol: Synthesis of the radiolabeled polypeptide was performed using a one-step kit formulation produced in house (Chelakit A+) containing a lyophilized mixture of stannous chloride as a reducing agent for technetium, methylene diphosphonic acid, p-aminobenzoate as a free-radical scavenger and sodium bicarbonate/sodium carbonate (pH 9.2) as buffer. In rapid succession, 20 µL of a 2 µg/µL solution of polypeptide in saline was added to the Chelakit, followed immediately by Na^99mTcO4 (0.8 mCi, 29.6 MBq) in 0.080 mL of saline (0.15M NaCl) obtained from Cardinal Health (Albany, NY). The mixture was agitated once and allowed to sit at ambient temperature for 20 min. Upon completion, the crude radiochemical yield was determined by ITLC (Table 6 below according to ITLC-SG, Biodex, 0.9% NaCl). […]
Mice were given tail-vein injections of ∼1 ug of ^99mTc-labeled polypeptides (∼10 µCi/1 µg). […] Three mice were euthanized at each timepoint and tissues of interest dissected and counted on a Perkin Elmer Wallac Wizard 1480 Gamma Counter. […] Urine from cages was pooled with the bladder and also counted. The remaining tissues were counted and the sum of all tissues plus urine for each animal was summed to provide the total injected dose. The % injected dose for each organ was determined based on this total, and organs were weighed for determination of the % injected dose per gram, (%ID/g). […]

SKOV3 tumors [2] = tested on: SKOV3 tumors; set-up: species or system female CD-1 nude mice; conditions: mouse, in vivo; remark: listed apart in the source
Protocol: In vivo studies were carried out with female CD-1 nude mice (Charles River Labs, Hopkinton, MA) with an age range between 6 and 15 weeks. Mice were housed in a ventilated rack with food and water ad libitum and a standard 12 hour day-night lighting cycle. For xenografts, animals were injected with 100 µl of cells in PBS. Cells were implanted subcutaneously in the right hindquarter. Implantation was performed under isoflurane anesthesia. For SKOV3, between 3 x 10^6 to 4 x 10^6 cells were implanted in each mouse. Under these conditions, useable tumors ([…]) were obtained in 3 to 4 weeks in greater than 80% of animals injected. Mice were given tail-vein injections of ∼1 ug of ^18F-labeled polypeptide (∼4 uCi/1 µg). Mice were placed in filter-paper lined cages until euthanasia. Three mice were euthanized at each timepoint and tissues of interest dissected and counted on a Perkin Elmer Wallac Wizard 1480 Gamma Counter. Data were collected for blood, kidney, liver, spleen, bone and injection site (tail). Urine from cages was pooled with the bladder and also counted. The remaining tissues were counted and the sum of all tissues plus urine for each animal was summed to provide the total injected dose. The percent injected dose for each organ was determined based on this total, and organs were weighed for determination of the percent injected dose per gram, (%ID/g). […]

Z02891 (SEQ. ID No. 2) cPN216: Z02891 polypeptide conjugated with Mal-cPN216 via a terminal cysteine and labeled with 99mTc
kidneys, ID/organ (SKOV3 tumors [1]): 10.58 ± 2.96 ID/organ
uptake in the liver (SKOV3 tumors [1]): 12 %ID/organ

Z02891 (SEQ. ID No. 2) 18F-fluorobenzyl oxime: Z02891-ONH2 (Mal-AO on cysteine) reacted with [18F]4-fluorobenzaldehyde
kidneys, ID/organ (SKOV3 tumors [2]): 0.95±0.07 ID/organ
uptake in the liver (SKOV3 tumors [2]): ca. 1.8 %ID/organ
